Assay [1] addresses full-length ComE^D58E from Streptococcus pneumoniae (Streptococcus pneumoniae strain R6). In words: SAXS.
Assay [2] addresses isolated REC^D58E domain of ComE (Streptococcus pneumoniae strain R6). In words: SEC. (In gel filtration, larger molecules generally elute earlier.)
For assay [3] the target is unchanged. In words: SAXS.

Among the data in article PMC4005675 are stoichiometry N values, retold here.

As a reminder, the stoichiometry N is the number of molecules, sites or subunits per partner or assembly. “full-length ComE^D58E from Streptococcus pneumoniae (natural protein)” returned a stoichiometry N in assay [1] of 2.

“isolated REC^D58E domain of ComE (domain or fragment)”: the stoichiometry N in assay [2] and in assay [3] was 2 in each case.
